Data reported in PMC9468336, “The choanoflagellate pore-forming lectin SaroL-1 punches holes in cancer cells by targeting the tumor-related glycosphingolipid Gb3” (Communications Biology, 2022).

Columns and labels:
SaroL-1 = target: T1, SaroL-1 (Salpingoeca rosetta, UniProt F2UID9); assay: Inhibition of SaroL-1 (217 nM) induced hemolysis of rabbit erythrocytes after 1 h pre-incubation of lectin with sugar at RT, then 1-2 h at 37 °C, absorbance of supernatant at 540 nm.; type: cell-based; details: n = 2
T1 construct: gene PTSG_08235; monomeric in solution
Procedure: Hemolytic assay (HA) and inhibition of hemolytic activity (IHA)
(§1) Both HA and IHA assays were performed in U-shaped 96-well microtiter plates. In both cases, a control negative experiment was performed with Buffer A added to erythrocyte solution (2% final concentration), and the resulting value was subtracted from all data.
IHA was performed in U-shaped 96-well microtiter plates. […] 4% rabbit erythrocytes were added to the mixture in a 1:1 ratio and incubated for 1–2 h at 37 °C. The samples were centrifuged, 2600 × g for 15 min at RT, and the absorbance of the supernatant was measured at 540 nm by a Tecan reader.

rabbit erythrocytes = assay: Hemolytic assay (HA); type: cell-based
Procedure: as §1
SaroL-1 with an initial concentration of 27 μM was diluted by serial 2-fold dilution in Buffer A. Rabbit erythrocytes were purchased from Atlantis France and used without further washing. The erythrocytes were diluted to a 4% solution in 150 mM NaCl. Protein solution and rabbit erythrocytes were mixed together in a 1:1 ratio and incubated for 1 h at 37 °C. After the samples were centrifuged, 2600 × g for 15 min at RT and the absorbance of the supernatant was measured at 540 nm by a Tecan reader.

Molecule | IC50 (SaroL-1) [µM] | Hemolysis MEAN % (rabbit erythrocytes; SaroL-1 7 nM) [%] | Hemolysis MEAN % (rabbit erythrocytes; SaroL-1 14 nM) [%] | Hemolysis MEAN % (rabbit erythrocytes; SaroL-1 27 nM) [%] | Hemolysis MEAN % (rabbit erythrocytes; SaroL-1 55 nM) [%] | Hemolysis MEAN % (rabbit erythrocytes; SaroL-1 110 nM) [%] | Hemolysis MEAN % (rabbit erythrocytes; SaroL-1 217 nM) [%] | Hemolysis MEAN % (rabbit erythrocytes; SaroL-1 423 nM) [%] | Hemolysis MEAN % (rabbit erythrocytes; SaroL-1 843 nM) [%] | Hemolysis MEAN % (rabbit erythrocytes; SaroL-1 1680 nM) [%] | Hemolysis MEAN % (rabbit erythrocytes; SaroL-1 3400 nM) [%] | Hemolysis MEAN % (rabbit erythrocytes; SaroL-1 6790 nM) [%] | Hemolysis MEAN % (rabbit erythrocytes; SaroL-1 13590 nM) [%]
O=[N+]([O-])c1ccc(O[C@H]2O[C@H](CO)[C@H](O)[C@H](O)[C@H]2O)cc1 [PNPG, p-nitrophenyl-α-D-galactopyranoside] | 2900 |  |  |  |  |  |  |  |  |  |  |  | 
SaroL-1: Recombinant pore-forming lectin of Salpingoeca rosetta (UniProt F2UID9, 329 amino acids) with β-trefoil and aerolysin-like domains (protein, left off: His6, N-terminal, state not stated, Recombinant pore-forming lectin of Salpingoeca rosetta (UniProt F2UID9, 329 amino acids) with β-trefoil and aerolysin-like domains) MSSTFEPATDSPLPVPGVQYFLQHVQSGKYVHPHGGSDMPGNDTALVLHHGFDEKRDALRWVFVNDAENKHQLKHYSSGKFVHPKGGKVGKEATLVVHSSPGRPETMIEMVQEDGRTYLRHTDSDYYVHPHGGSPNPGDNTRLVYYSGYRPSLAFLAIPAETLFVDRIEIHQAQALESINTITSLSDEHRNDTDQPVQTSISVALEESLQDSAQLSFERCFGLKVGSEFEVGLPLVGKTKVSVQFSGSWKSSTIKGEVRTSAVKVQINEHVTIPPGKCVQIRIDTRRCTKTAPATMYLRTASGIEVQRETTVTSTYHYDQEVHVVPVTN |  | -2.217 | -0.8961 | -0.5487 | 5.667 | 24.3716 | 59.5625 | 85.1119 | 95.7679 | 93.9729 | 95.1481 | 95.7781 | 100
